How the values were obtained:
Assay in all cases: sandwich ELISA, AM14 coated, supernatant 1:10
FHM-10 (RSV strain A2) = FHM-10 (RSV strain A2) (UniProt P03420)
FHM-13 (RSV strain A2) = FHM-13 (RSV strain A2) (UniProt P03420)
FHM-16 (RSV strain A2) = FHM-16 (RSV strain A2) (UniProt P03420)
FHM-19 (RSV strain A2) = FHM-19 (RSV strain A2) (UniProt P03420)
FHM-21 (RSV strain A2) = FHM-21 (RSV strain A2) (UniProt P03420)
FHM-25 (RSV strain A2) = FHM-25 (RSV strain A2) (UniProt P03420)
FHM-3 (RSV strain A2) = FHM-3 (RSV strain A2) (UniProt P03420)
FHM-4 (RSV strain A2) = FHM-4 (RSV strain A2) (UniProt P03420)
FHM-6 (RSV strain A2) = FHM-6 (RSV strain A2) (UniProt P03420)
FHS-1 (RSV strain A2) = FHS-1 (RSV strain A2) (UniProt P03420)
FHS-11 (RSV strain A2) = FHS-11 (RSV strain A2) (UniProt P03420)
FHS-17 (RSV strain A2) = FHS-17 (RSV strain A2) (UniProt P03420)
FHS-2 (RSV strain A2) = FHS-2 (RSV strain A2) (UniProt P03420)
FHS-21 (RSV strain A2) = FHS-21 (RSV strain A2) (UniProt P03420)
FHS-24 (RSV strain A2) = FHS-24 (RSV strain A2) (UniProt P03420)
FHS-28 (RSV strain A2) = FHS-28 (RSV strain A2) (UniProt P03420)
FHS-3 (RSV strain A2) = FHS-3 (RSV strain A2) (UniProt P03420)
FHS-30 (RSV strain A2) = FHS-30 (RSV strain A2) (UniProt P03420)
FHS-40 (RSV strain A2) = FHS-40 (RSV strain A2) (UniProt P03420)
FHS-45 (RSV strain A2) = FHS-45 (RSV strain A2) (UniProt P03420)
FHS-46 (RSV strain A2) = FHS-46 (RSV strain A2) (UniProt P03420)
FHS-50 (RSV strain A2) = FHS-50 (RSV strain A2) (UniProt P03420)
FHS-56 (RSV strain A2) = FHS-56 (RSV strain A2) (UniProt P03420)
FHS-57 (RSV strain A2) = FHS-57 (RSV strain A2) (UniProt P03420)
FHS-64 (RSV strain A2) = FHS-64 (RSV strain A2) (UniProt P03420)
FHS-66 (RSV strain A2) = FHS-66 (RSV strain A2) (UniProt P03420)
FHS-67 (RSV strain A2) = FHS-67 (RSV strain A2) (UniProt P03420)
FHS-68 (RSV strain A2) = FHS-68 (RSV strain A2) (UniProt P03420)
FHS-70 (RSV strain A2) = FHS-70 (RSV strain A2) (UniProt P03420)
FHS-75 (RSV strain A2) = FHS-75 (RSV strain A2) (UniProt P03420)
FHS-76 (RSV strain A2) = FHS-76 (RSV strain A2) (UniProt P03420)
FHS-77 (RSV strain A2) = FHS-77 (RSV strain A2) (UniProt P03420)
FHS-78 (RSV strain A2) = FHS-78 (RSV strain A2) (UniProt P03420)
FHS-79 (RSV strain A2) = FHS-79 (RSV strain A2) (UniProt P03420)
FHS-84 (RSV strain A2) = FHS-84 (RSV strain A2) (UniProt P03420)
FHS-88 (RSV strain A2) = FHS-88 (RSV strain A2) (UniProt P03420)
FHS-89 (RSV strain A2) = FHS-89 (RSV strain A2) (UniProt P03420)
FHS-9 (RSV strain A2) = FHS-9 (RSV strain A2) (UniProt P03420)
FHS-92 (RSV strain A2) = FHS-92 (RSV strain A2) (UniProt P03420)
FHS-96 (RSV strain A2) = FHS-96 (RSV strain A2) (UniProt P03420)
[1] = molecular target: wild-type RSV F protein 1 before artificial mutation (RSV strain A2) (UniProt P03420)

## AM14 monoclonal antibody
FHM-10 (RSV strain A2)
  OD value: 0.01 OD
FHM-13 (RSV strain A2)
  OD value: 1.07 OD
FHM-16 (RSV strain A2)
  OD value: 0.26 OD
FHM-19 (RSV strain A2)
  OD value: 0.367 OD
FHM-21 (RSV strain A2)
  OD value: 0.007 OD
FHM-25 (RSV strain A2)
  OD value: 2.42 OD
FHM-3 (RSV strain A2)
  OD value: 0.07 OD
FHM-4 (RSV strain A2)
  OD value: 0.028 OD
FHM-6 (RSV strain A2)
  OD value: 0.005 OD
FHS-1 (RSV strain A2)
  OD value: 2.03 OD
FHS-11 (RSV strain A2)
  OD value: 2.04 OD
FHS-17 (RSV strain A2)
  OD value: 0.009 OD
FHS-2 (RSV strain A2)
  OD value: 0.012 OD
FHS-21 (RSV strain A2)
  OD value: 0.008 OD
FHS-24 (RSV strain A2)
  OD value: 0.01 OD
FHS-28 (RSV strain A2)
  OD value: 0.008 OD
FHS-3 (RSV strain A2)
  OD value: 0.076 OD
FHS-30 (RSV strain A2)
  OD value: 0.009 OD
FHS-40 (RSV strain A2)
  OD value: 0.009 OD
FHS-45 (RSV strain A2)
  OD value: 0.12 OD
FHS-46 (RSV strain A2)
  OD value: 2.41 OD
FHS-50 (RSV strain A2)
  OD value: 2.3 OD
FHS-56 (RSV strain A2)
  OD value: 0.009 OD
FHS-57 (RSV strain A2)
  OD value: 0.007 OD
FHS-64 (RSV strain A2)
  OD value: 0.008 OD
FHS-66 (RSV strain A2)
  OD value: 1.75 OD
FHS-67 (RSV strain A2)
  OD value: 1.86 OD
FHS-68 (RSV strain A2)
  OD value: 1.99 OD
FHS-70 (RSV strain A2)
  OD value: 0.007 OD
FHS-75 (RSV strain A2)
  OD value: 0.028 OD
FHS-76 (RSV strain A2)
  OD value: 0.821 OD
FHS-77 (RSV strain A2)
  OD value: 0.06 OD
FHS-78 (RSV strain A2)
  OD value: 1.24 OD
FHS-79 (RSV strain A2)
  OD value: 0.008 OD
FHS-84 (RSV strain A2)
  OD value: 1.01 OD
FHS-88 (RSV strain A2)
  OD value: 2.3 OD
FHS-89 (RSV strain A2)
  OD value: 0.006 OD
FHS-9 (RSV strain A2)
  OD value: 0.009 OD
FHS-92 (RSV strain A2)
  OD value: 0.012 OD
FHS-96 (RSV strain A2)
  OD value: 0.011 OD
[1]
  OD value: 0.014 OD

— patent US20260117202A1
